From the nanobody polyreactivity screen of Harvey et al. (2022)

assay: yeast display, Sf9 membrane polyspecificity reagent, FACS + sequencing; frameworks hold sequencing errors
Outline: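 Using colony PCR, genes from sorted yeast display clones were amplified, then sequenced on MiSeq at 2 × 250 and filtered by CDR length. The clones had been stained with 10% biotinylated, detergent-solubilized Sf9 membrane reagent for 1 hour at 4 °C and sorted by FACS into low and high (top ~1%) gates on anti-HA and streptavidin fluorescence. Polyreactivity labels come from the gate of origin.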

Sequence | polyreactivity (PSR sort gate)
QVQLVESGGGLVQAGGSLRLSCAASGSTFQRYAMGWYRQAPGKERELVAAINKSGGTTYYADSVKGRFTISRDNAKNTVYLLMNSLKPEDTAVYYCATDNPVVYQPGNMDYWGQGTQVTVSS | low polyreactivity
QVQLVESGGGLVQAGGSLRLSCAASGSTFQRYAMGWYRQAPGKERELVAVITNGGSTKYADSVKGRFTISRDNAKNTVYLQMNSLKPEDTAVYYCAAGLRSWSTGLWYGYWGQGTQVTVSS | high polyreactivity
QVQLVESGGGLVQAGGSLRLSCAASGSTFQRYTMGWYRQPPGKERELVAAISQSGGRTYYADSVKGRFTISRDNAKNTVYLQMNSLKPEDTAVYYCNAASRTKFDYWGQGTQVTVTS | high polyreactivity
QVQLVESGGGLVQAGGSLRLSCAASGSTFQSNAMGWYRQAPGKERELVATISWSGGITYADSVKGRFTISRDNAKNTVYLQMNSLKPEDNAVHYFTDPDFDYWGQGTQVTLSS | low polyreactivity
QVQLVESGGGLVQAGGSLRLSCAASGSTFQSNAMGWYRQAPGKERELVATITQSGATTYYADSVKGRFTISRDNAKNTVYLQMNSLKPEDTAVYYCNVDTYQKRWFWLDLDGGYWGQGTQVTVSS | low polyreactivity
QVQLVESGGGLVQAGGSLRLSCAASGSTFQSYTMGWYRQAPGKERELVAGISRSGGSTYYADSVKGRFTISRDNAKNTVYLQMNSLKPEDTAVYYCAAAFYGRWGGFDYWGQGTQVTVSS | high polyreactivity
QVQLVESGGGLVQAGGSLRLSCAASGSTFQTYAMGGYRQAPGKEREFVAAITSGGSTNYADSVKGRFTISRDNAKNTVYLQMNSLKPEDTAVYYCAVRQIYQTSDHRLQYDYWGQGTQVTVSS | low polyreactivity
QVQLVESGGGLVQAGGSLRLSCAASGSTFQTYAMGWYRQAPGKERELVAAITYGGSTNYADSVKGRFTMSRANAKNTVYLLMNSLKPEDTAVYYCAARDGDQRPRLRYDYWAQGTQVTVSS | low polyreactivity
QVQLVESGGGLVQAGGSLRLSCAASGSTFQVYAMGWYRPAPRKERELVATIRRTGGSTYYADSVKGRFTISRDNAKNTVYLQMNSLKPEDTAVYYCAARTYGGIVLRLDYWGQGTQVTVSS | high polyreactivity
QVQLVESGGGLVQAGGSLRLSCAASGSTFQVYAMGWYRQAPGKERELVAAISNGGRTNYADSVKGRFTISRDNAKNTVYLLMNSLKPEDTAVYYCNADQVWWSFDRVLVGYEYWGQGTQVTVSS | low polyreactivity
QVQLVESGGGLVQAGGSLRLSCAASGSTFQVYGMGWYRQAPGKERELGAAISRSGGRTYYADSVKGRFTISRDNAKNTVYLQMNSLKPEDTAVYYCNAPISYYDEYYYWGQGTQVTVSS | high polyreactivity
QVQLVESGGGLVQAGGSLRLSCAASGSTFQWNAMGWYRQAPGKERELVAAISKSGGRTYYADSVKGRFTISRDNAKNTVYLQMNSLKPEDTAVYYCNALGSLDGRYGYWGQGTQVTVSS | high polyreactivity
QVQLVESGGGLVQAGGSLRLSCAASGSTFQYNAMGWYRQAPGKERELVAAISLSGGSTYYADSVKGRFTISRDNAKNTVYLQMNSLKPEDTAVYYCATEYYVYDYYYWAWYGYEYWGQGTQVTVSS | high polyreactivity
QVQLVESGGGLVQAGGSLRLSCAASGSTFQYYAMGWYRQAPGKEGELVATINSGGSTNYADSVKGRFTISRDNAKNTVYLQMNSLKPEDTAVYYCARRVRYKHYDYWGQGTQVTVSS | high polyreactivity
QVQLVESGGGLVQAGGSLRLSCAASGSTFQYYAMGWYRQAPGKERELVAAITHSGTRTYYADSVKGRFTISRDNAKNTVYLQMNSLKPEDTAVYYCAARGYGKYDYWGQGTQVTVSS | high polyreactivity
QVQLVESGGGLVQAGGSLRLSCAASGSTFQYYAMGWYRQAPGKERELVARISDSSANTYYADSVKGRFTISRDNAKNTVYLQMNSLKPEDTAVYYCAASVPYKFYSVVSVRYEYWGQGTQVTVSS | low polyreactivity
QVQLVESGGGLVQAGGSLRLSCAASGSTFQYYAMGWYRQAPGKERELVASISLSGTSTYYADSVKGRFTISRDNAKNTVYLQMNSLKPEDTAVYYCAADIVPWWASFLYDGEDYWGQGTQVTVSS | low polyreactivity
